US11370846B2, “Compositions and methods to regulate Renalase in the treatment of cancer” (Yale University, priority 2014, dated 2022)
Entries after “also recorded” stand apart in the source; their conditions may differ. Like-named read-outs stand apart in the source and are kept apart here.

Legend:
STAT3 = STAT3 phosphorylation in Panc1 cells by western blot; assay type: cell-based, human; conditions: antibody treatment for up to 4 days; listed as m28-RNLS
Source text: FIG. 27A through FIG. 27E are a series of images and charts showing the interaction between RNLS and STAT3, and the mechanistic model of inhibition by m28-RNLS. FIG. 27A is an image showing activation of STAT3 by RNLS in Panc1 cells; Panc1 cells in culture treated with either BSA or RNLS, and STAT3 phosphorylation assessed by western blot; p-Ser^727-STAT3: phosphorylation at serine 727, p-Y^705-STAT3: phosphorylation at tyrosine 705; representative study. FIG. 27B is a chart depicting the quantification of STAT3 phosphorylation with RNLS; signals normalized to total STAT3; n=3, *=P<0.05. […] FIG. 27D is a chart showing the quantification of STAT3 phosphorylation with m28-RNLS; signals normalized to GAPDH loading control; n=3, *=P<0.05. FIG. 27E depicts the proposed mechanistic model for antitumor activity of m28-RNLS.

A375.S2 melanoma cells = experiment: Cell viability, WST-1, A375.S2 melanoma cells; assay type: cell-based, human; conditions: A375.S2, 72 hrs
Experimental: (§1) FIG. 19A through FIG. 19D are a series of images and charts showing that inhibition of RNLS signaling is cytotoxic to melanoma cells in vitro. […] FIG. 19B comprises two charts depicting relative cell viability: Left panel: Cells were treated with indicated antibodies for 72 hrs and cell viability was determined using WST-1; m28-RNLS (also known as 1D-28-4), m37-RNLS (also known as 1D-37-10): monoclonal antibodies raised against RNLS peptide RP220; Right panel: A375.S2 cells treated with increasing doses of m28-RNLS for 72 hrs and cell viability determined with a WST-1 assay; n=6, * indicates p<0.05 and ** indicates p<0.005. FIG. 19C comprises representative photos of A375.S2, SkMe128, and SkMe15 after 72 hrs incubation with either control rabbit IgG or m28-RNLS. FIG. 19D is a chart depicting relative cell viability, comprising amino acid (AA) sequence of RNLS peptide antagonist (RP220A).
(§2) For additional studies, cell viability was determined using WST-1 reagent (Roche Diagnostics, Indianapolis, Ind., USA) according to the manufacturers' instruction. Absorbances were read using a microplate reader (Power Waves XS, BioTek Instruments, Winooski, Vt., USA).

melanoma cells = experiment: Melanoma cell lines in culture, viability/growth; assay type: cell-based, human
Experimental: as §1, §2

p38 MAPK = p38 MAPK phosphorylation in Panc1 cells by western blot; assay type: cell-based, human; conditions: beginning at day 1 post treatment
Experimental: FIG. 26A through FIG. 26E are a series of images and charts showing that inhibition of RNLS signaling induces apoptosis and cell cycle arrest. […] FIG. 26B is a chart depicting FACS analysis of Panc1 cells in culture treated with either m28-RNLS (30 μg/ml) or 100 μM etoposide (positive control) for 4 days; n=3, * indicates p<0.05. FIG. 26C is an image showing Panc1 cells treated with polyclonal ab31291 or with goat IgG as a negative control, and cells lysates probed for p38 and Bax activation by western blot. […] FIG. 26E is a chart showing the effect of m28-RNLS on cell cycle of Panc1 cells determined by FACS analysis; green curve: no treatment, purple curve: rabbit IgG, red curve: m28-RNLS 30 μg/ml.

A375.S2 xenograft tumors = assay type: in vivo
Experimental: Immunohistochemistry was performed as described previously (Guo et al., 2012 Cancer science. 103:1474-80). Briefly, tumor tissues were formalin-fixed, paraffin-embedded and cut into 5-μm sections on glass slides. The slides were de-paraffinized and hydrated, followed by antigen retrieval in a pressure cooker containing 10 mM sodium citrate, pH6 buffer. The sections were blocked in 3% hydrogen peroxide for 30 min and 2.5% normal horse serum in PBS/0.1% Tween20 for 1 h followed by incubation with primary antibody and isotype control IgG overnight at 4° C. The following antibodies were used in this study: m28-RNLS at 500 ng/ml; goat polyclonal anti-RNLS at 250 ng/ml (Abcam, ab31291); rabbit monoclonal anti-CD68 (BDBioscience, 1:100); rabbit monoclonal anti-CD163 (AbD Serotec, 1:100); rabbit monoclonal anti-CD86 (Abcam, 1:100); rabbit monoclonal anti-Ki67 (Vector Lab, VP-RM04, 1:100); rabbit monoclonal anti-p21, phspho-Tyr^705-Stat3, and total Stat3 (Cell Signaling Technologies, #2947, 1:100, #9145, 1:400, and #4904, 1:400, respectively). ImmPRESS peroxidase-anti-rabbit IgG (Vector Laboratories, Burlingame, Calif., USA) was used to detect primary antibodies. The color was developed using a Vector DAB substrate kit and counterstained with hematoxylin (Vector Laboratories). Slides were observed and photographed using an Olympus BX41 microscope and camera (Olympus America Inc, Center Valley, Pa., USA).
Female athymic, 18-20 g nude mice (nu/nu) were obtained from Charles River (Willimantic, Conn.) and housed in microisolator cages, with autoclaved bedding in a specific pathogen-free facility, with a 12-h light/dark cycle.
Xenograft tumors were established by subcutaneous injection of A375.S2 cells (2×10^6 in 100 μl of PBS, pH 7.6). When the tumors reached a volume of 50-100 mm^3, the mice were divided into a control group (n=14 treated with rabbit IgG, 40 μg by intraperitoneal injection (IP) once weekly, and 40 ug subcutaneously (SQ) around the tumor site every 3 days), and an experimental group (n=14) that received m28-RNLS (40 μg IP, once weekly, and 40 ug SQ, every 3 days). Tumor size was measured with digital calipers and volume was calculated according to the formula (length×width)×π/2.
At the end of the study, the mice were sacrificed, the tumors were excised and immediately snap-frozen in liquid nitrogen and stored at −80° C. Apoptosis was examined using the TUNEL assay (Roche in situ Apoptosis Detection System), according to the manufacturer's instructions. Sections were examined by light microscopy and the apoptosis index was determined by counting >1000 cells in 10 randomly selected high-power fields (×200 magnification).

B1: 1D-28-4: rabbit anti-renalase monoclonal raised against peptide RP-220 (antigen 1D); heavy chain SEQ ID NO:9, light chain SEQ ID NO:10 (antibody)
heavy: METGLRWLLLVAVLKGVQCQSVEESGGRLVTPGTPLTLTCTVSGFSLSSFAVGWVRQAPGKGLEYIGIISSVGITRYASWAAGRFTISKTSTTVDLKITSPTTEDTATYFCARYGYSGDVNRLDLWGQGTLVTVSSGQPKAPSVFPLAPCCGDTPSSTVTLGCLVKGYLPEPVTVTWNSGTLTNGVRTFPSVRQSSGLYSLSSVVSVTSSSQPVTCNVAHPATNTKVDKTVAPSTCSKPTCPPPELLGGPSVFIFPPKPKDTLMISRTPEVTCVVVDVSQDDPEVQFTWYINNEQVRTARPPLREQQFNSTIRVVSTLPIAHQDWLRGKEFKCKVHNKALPAPIEKTISKARGQPLEPKVYTMGPPREELSSRSVSLTCMINGFYPSDISVEWEKNGKAEDNYKTTPAVLDSDGSYFLYSKLSVPTSEWQRGDVFTCSVMHEALHNHYTQKSISRSPGK
light: MDTRAPTQLLGLLLLWLPGATFAQVLTQTASPVSAAVGGTVTINCQASQSVYDNNNLAWYQQKPGQPPKQLIYGASTLASGVSSRFKGSGSGTQFTLTISGVQCDDAATYYCLGEFSCSSADCFAFGGGTEVVVKGDPVAPTVLIFPPSADLVATGTVTIVCVANKYFPDVTVTWEVDGTTQTTGIENSKTPQNSADCTYNLSSTLTLTSTQYNSHKEYTCKVTQGTTSVVQSFNRGDC
modifications: oryctolagus cuniculus
STAT3
  p-Y705-STAT3 in Panc1: long-lasting and sustained decrease; also recorded: inhibits STAT3 phosphorylation
A375.S2 melanoma cells
  cytotoxicity with increasing dose: increasing levels of cytotoxicity in correlation with increasing treatment concentrations
Melanoma cells
  melanoma cell growth/viability in culture: inhibits melanoma cells in culture
Melanoma cells; listed as m28-RNLS
  melanoma cell growth/viability in culture: decreased the viability of all (total of 5) melanoma cell lines tested
p38 MAPK
  phosphorylation of p38 MAPK: sustained phosphorylation
A375.S2 xenograft tumors; IHC of xenografted tumors
  Ki67 positive cells: 13.4±3.0 positive cells/high power field
  p21 positive cells: 24.2±2.4 positive cells
A375.S2 xenograft tumors; immunofluorescence of xenografts, listed as m28-RNLS
  number of CD163+ TAMs: decreases CD163+TAMs
A375.S2 xenograft tumors; immunofluorescence, listed as m28-RNLS
  total and phosphorylated STAT3 in tumors: marked reduction; also recorded: dramatic reduction
A375.S2 xenograft tumors; mouse, in vivo
  ratio of CD86+ to CD163+ TAMs: increases the ratio
A375.S2 xenograft tumors; overall animal health and activity
  toxicity of antibody treatment: did not appear to be toxic
A375.S2 xenograft tumors; qPCR, mouse specific primers
  mouse RNLS expression in tumor mass: significant reduction
A375.S2 xenograft tumors; western blot
  p-Y705-STAT3 and total STAT3 in tumors: significantly decreased
